Measured values taken from the supplement of paper PMC10201428.
± gives the standard deviation of the averaged measurements.

How the values were obtained:
[1] = test system: VchCAST RNA-guided transposition machinery (E. coli BL21(DE3) host, lacZ target); experiment: relative integration efficiency (T-RL orientation) vs wild-type transposon end (log2 (normalized fold change)); transposon end mutated: left end; higher = more efficient transposition
Outline: (§1)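 Pools of 1549 left-end or 1849 right-end barcoded transposon variants were cloned into a pUC57 mini-transposon donor and co-transformed into E. coli BL21(DE3) with a T7-driven effector plasmid carrying a CRISPR array, tniQ-cas8-cas7-cas6 and tnsA-tnsB-tnsC. Plating used 0.1 mM IPTG at 37°C for 18 h, and input plasmids and genomic integration junctions were PCR-amplified for Illumina sequencing, with two biological output replicates and four reference barcodes. Relative integration efficiency is the log-transformed fold change of output over input barcode abundance, normalised to the reference barcodes.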

[2] = test system: VchCAST RNA-guided transposition machinery (E. coli BL21(DE3) host, lacZ target); experiment: relative integration efficiency (T-LR orientation) vs wild-type transposon end (log2 (normalized fold change)); transposon end mutated: left end; higher = more efficient transposition
Outline: as §1

| Sequence | relative integration efficiency (log2) [1] | relative integration efficiency (log2) [2] |
| --- | --- | --- |
| AATGTTGTTGATGCAACCATAAAGTGATATTTAATAATTATTTATAATCAGCAACTTAACCACAAAACCCAACGCGCGGTCGCGAGACACCCCACCAACGCCTGGTCGCGGGGGTGTCCGATCTGATTTCAGCAAAACTACTGCAGTAAGAA | -7.08 ± 1.4 | -2.9 ± 0.65 |
| AATGTTGTTGATGCAACCATAAAGTGATATTTAATAATTATTTATAATCAGCAACTTAACCACAAAACAACCATATATTTCGCGAGACACCCCACCAACGCCTGGTCGCGGGGGTGTCCGATCTGATTTCAGCAAAACTACTGCAGTAAGAA | -6 ± 1.3 | -4.98 ± 3.6 |
| AATGTTGTTGATGCAACCATAAAGTGATATTTAATAATTATTTATAAGACTACCAGGCCAACACCCCACCAACGCGCGGTCGCGAGACACCCCACCAACGCCTGGTCGCGGGGGTGTCCGATCTGATTTCAGCAAAACTACTGCAGTAAGAA | -6.62 ± 1.2 | -6.04 ± 3.5 |
| AATGTTGTTGATGCAACCATAAAGTGATATTTAATAATTATTTATAATCAGCAACTTAACCACAAAACAACCATATATTGATATCTCACAAAACAACCAGCCTGGTCGCGGGGGTGTCCGATCTGATTTCAGCAAAACTACTGCAGTAAGAA | -2.22 ± 0.9 | -0.68 ± 0.94 |
| AATGTTGTTGATGCAACCATAAAGTGATATTTAATAATTATTTATAATCAGCAACTTAACCACAACCACCAACGCGCGGTCGCGAGACACCCCACCAACGCCTGGTCGCGGGGGTGTCCGATCTGATTTCAGCAAAACTACTGCAGTAAGAA | -5.83 ± 1.9 | -4.35 ± 3.3 |
| AATGTTGTTGATGCAACCATAAAGTGATATTTAATAATTATTTATAATCAGCAACTTCAACCATATATTGATATCTCAACCACAAAAACAAAACAACCATAAGTTGATATTTTTGTGAATCGAGTATTTCAGCAAAACTACTGCAGTAAGAA | -2.25 ± 0.7 | -2.92 ± 1.7 |
| AATGTTGTTGATGCAACCATAAAGTGATATTTAGCCGCTTCCGGGGCTGCCCTCTAAGCGCGAGCGCCAACCATATATTGATATCTCACAAAACAACCATAAGTTGATATTTTTGTGAATCGAGTATTTCAGCAAAACTACTGCAGTAAGAA | -3.92 ± 1.2 | -0.565 ± 0.97 |
| AATGTTGTTGATGCAACCAGCCCTGTCGCGGGCCGCCGGCGGGCGCCGACTACCAGGCCAACACCCCACCAACGCGCGGTCGCGAGACACCCCACCAACGCCTGGTCGCGGGGGTGTCCGATCTGATTTCAGCAAAACTACTGCAGTAAGAA | < -10 | -9 ± 0.31 |
| AATGTTGTTGATGCAACCATAAAGTGATATGGCCGCCGGCGGGCGCCGACTACCAGGCCAACACCCCACCAACGCGCGGTCGCGAGACACCCCACCAACGCCTGGTCGCGGGGGTGTCCGATCTGATTTCAGCAAAACTACTGCAGTAAGAA | -7.18 ± 0.63 | -6.67 ± 3.5 |
| AATGTTGTTGACAACCATAAAGTGATATTTAATAATTATTTATAATCAGCAACTTAACCACAAAACAACCATATATTGATATCTCACAAAACAACCATAAGTTGATATTTTTGTGAATCGAGTATTTCAGCAAAACTACTGCAGTAAGAAAG | -1.33 ± 0.66 | -5.1 ± 0.69 |
| AATGTTGTTGATGCAACCATAAAGTGATATTTAATAATTATTTCGAACTAGTTAACTAGTACGCAAACAACCATATATTGATATCTCACAAAACAACCATAAGTTGATATTTTTGTGAATCGAGTATTTCAGCAAAACTACTGCAGTAAGAA | -4.69 ± 1.4 | < -10 |
| AATGTTGTTGAAACAACCATAAAGTGATAACAACGAATCAATTAAAATCATAGGCTTAATCGAAAAACAACCATATCTTGATATCGCATAAAACAACCATAAGTTGATATTTTTGTGAATCGAGTATTTCAGCAAAACTACTGCAGTAAGAA | -0.424 ± 0.24 | -0.327 ± 0.31 |
| AATGTTGTTGATGCAACCATAAAGTGATAATAATTATTTATAATCAGCAACTTAACCACAAAACAACCATATATTGATATCTCACAAAACAACCATAAGTTGATATTTTTGTGAATCGAGTATTTCAGCAAAACTACTGCAGTAAGAAAGTT | -7.71 ± 1.4 | -6.51 ± 1.4 |
| AATGTTGTTGATGCAACCATAAAGTGATATTTAATAATTATTTATAATCAGCAACTTAACCACAAAACAACCATATATTGATATCTCACAAAACAACCATAAGTTGATATGTGAATCGAGTATTTCAGCAAAACTACTGCAGTAAGAAAGTT | -0.276 ± 0.26 | -0.00636 ± 0.11 |
| TTTTGTGTTGATGCAACCATAAAGTGATAACAACGAATCAATTAAAATCATAGGCTTAATCGAAAAACAACCATATCTTGATATCGCATAAAACAACCATAAGTTGATATTTTGGTGAAAAGGATATTCCAACCTTCATAGTTTAGTAAGAA | -0.528 ± 0.32 | -0.426 ± 0.46 |
| AATGTTGTTGATGCAACCATAAAGTGATATTTACAACCATAAAGTGATATTTAACTTAACCACAAAACAACCATATATTGATATCTCACAAAACAACCATAAGTTGATATTTTTGTGAATCGAGTATTTCAGCAAAACTACTGCAGTAAGAA | -3.13 ± 0.76 | 1.11 ± 0.91 |
| AATGTTGTTGATGCAACCATAAAGTGATATTTACGTCTGTACAGCGCACAGAAGCTGGGAACTCGGCCAACCATATATTGATATCTCACAAAACAACCATAAGTTGATATTTTTGTGAATCGAGTATTTCAGCAAAACTACTGCAGTAAGAA | -3.56 ± 1.1 | -3.36 ± 2.2 |
| AATGTTGTTGATGCAACCATAAAGTGATATTTATTTATGGCTAGCTCAGTCCTAGGTACAATGCTAGCAACCATATATTGATATCTCACAAAACAACCATAAGTTGATATTTTTGTGAATCGAGTATTTCAGCAAAACTACTGCAGTAAGAA | -4.66 ± 0.6 | -2.71 ± 0.58 |
| AATGTTGTTGATGCAACCATAAAGTGATATTTAATAATTATTTATAATCAGCAACTTAACCACAAAATGTGAATCGAGTATTTCAGCAAAACTACTGCAGTACAACCATATATTGATATCTCACAAAACAACCATAAGTTGATATTTTAGAA | -6.01 ± 0.9 | -3.82 ± 1.3 |
| TTTTGTGTTGAAACAACCATAAAGTGATAACAACGAATCAATTAAAATCATAGGCTTAATCGAAAAACAACCATATCTTGATATCGCATAAAACAACCATAAGTTGATATTTTGGTGAAAAGGATATTCCAACCTTCATAGTTTAGTAAGAA | -0.363 ± 0.32 | -0.599 ± 0.63 |
| AATGTTGTTGATGCAACCATAAAGTGATATTTAATAATTATTTATAATCAGCAACTTAACCACAAAACAACCATATATTGATATCTCACAAAACAACCATAATGGTCGCGGGGGTGTCCGATCTGATTTCAGCAAAACTACTGCAGTAAGAA | -1.93 ± 0.81 | -1.31 ± 0.87 |
| AATGTTGTTGATGCAACCATAAAGTGATATTTAATAATTATTTATAATCAGCAACTTAACAACCATATATTGATATCTCCCACAAAAACAAAACAACCATAAGTTGATATTTTTGTGAATCGAGTATTTCAGCAAAACTACTGCAGTAAGAA | -1.81 ± 0.81 | -3.54 ± 1.9 |
| AATGTTGTTGATGCAACCATAAAGTGATATTTAATAATTATTTATAATCAGCAACTTAACCACAAAACAACCATATATTGATATCTCACAAAACAACCATAAGTTGATTGTGAATCGAGTATTTCAGCAAAACTACTGCAGTAAGAAAGTTA | -0.574 ± 0.38 | -0.858 ± 0.1 |
| AATGTTGTTGATCAACCATAAAGTGATATTTAATAATTATTTATAATCAGCAACTTAACCACAAAACAACCATATATTGATATCTCACAAAACAACCATAAGTTGATATTTTTGTGAATCGAGTATTTCAGCAAAACTACTGCAGTAAGAAA | -6.905 ± 0.028 | < -10 |
| AATGTTGTTGATGCAACACGCCCTGTCGCGGGCCGCCGGCGGGCGCCGACTACCAGGCCAACACCCCACCAACGCGCGGTCGCGAGACACCCCACCAACGCCTGGTCGCGGGGGTGTCCGATCTGATTTCAGCAAAACTACTGCAGTAAGAA | < -10 | < -10 |
| AATGTTGTTGATGCAACCATAAAGTGATATTTAATAATTATTTATAATCAGCAACTTAACCACAACCATATATTGATATCTCCAAAAACAAAACAACCATAAGTTGATATTTTTGTGAATCGAGTATTTCAGCAAAACTACTGCAGTAAGAA | -3.07 ± 1 | -2.36 ± 0.59 |
| AATGTTGTTGATGCAACCATAAAGTGATATTTAATAATTATCAACCATATATTGATATCTCTTATAATCAGCAACTTAACCACAAAAACAAAACAACCATAAGTTGATATTTTTGTGAATCGAGTATTTCAGCAAAACTACTGCAGTAAGAA | -4.57 ± 1.7 | -2.13 ± 1.5 |
